Data set [1] has as its target T1, MBP-N-EIN3 (Arabidopsis thaliana, UniProt O24606 1-314).
T1 sequence: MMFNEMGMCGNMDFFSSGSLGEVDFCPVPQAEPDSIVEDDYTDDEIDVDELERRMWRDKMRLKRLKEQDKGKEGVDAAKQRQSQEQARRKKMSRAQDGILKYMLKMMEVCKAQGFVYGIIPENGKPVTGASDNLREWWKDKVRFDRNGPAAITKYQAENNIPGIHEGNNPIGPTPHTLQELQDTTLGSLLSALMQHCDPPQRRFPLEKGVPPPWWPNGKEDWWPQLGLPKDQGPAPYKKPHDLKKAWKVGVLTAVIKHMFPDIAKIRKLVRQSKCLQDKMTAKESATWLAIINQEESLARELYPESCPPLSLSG
The data set is described as follows: EMSA; LightShift Chemiluminescent EMSA kit binding buffer (composition, pH, temperature not given); 400 ng protein, 12.5 fmol 5'-biotin probe, 1 ug poly(dI-dC), 15 min. The conditions noted are these: protein: recombinant; tags: N-terminal MBP (pMAL-c5g); chain copies: 2; label: 5'-biotin; blunt. (In general: In EMSA bound probe runs differently from free probe, usually more slowly.)

In data set [2] the target is T1, MBP-N-EIN3. As to the kind of experiment: competition; unlabeled 800-fold excess vs PAO-EBS; LightShift Chemiluminescent EMSA kit binding buffer (composition, pH, temperature not given); 400 ng protein, 12.5 fmol 5'-biotin probe, 1 ug poly(dI-dC), 15 min. The conditions noted are these: protein: recombinant; tags: N-terminal MBP (pMAL-c5g); chain copies: 2; blunt.
For data set [3], the target named is T1, MBP-N-EIN3. As to the kind of experiment: competition; unlabeled 800-fold excess vs NYE1-EBS; LightShift Chemiluminescent EMSA kit binding buffer (composition, pH, temperature not given); 400 ng protein, 12.5 fmol 5'-biotin probe, 1 ug poly(dI-dC), 15 min. The conditions noted are these: protein: recombinant; tags: N-terminal MBP (pMAL-c5g); chain copies: 2; blunt.

Data set [4] addresses T1, MBP-N-EIN3. As to the kind of experiment: competition; unlabeled 800-fold excess vs ORE1-EBS; LightShift Chemiluminescent EMSA kit binding buffer (composition, pH, temperature not given); 400 ng protein, 12.5 fmol 5'-biotin probe, 1 ug poly(dI-dC), 15 min. The conditions noted are these: protein: recombinant; tags: N-terminal MBP (pMAL-c5g); chain copies: 2; blunt.
The target of the next data set is T2, MBP-ORE1 (Arabidopsis thaliana, UniProt Q9FKA0 1-285).
T2 sequence: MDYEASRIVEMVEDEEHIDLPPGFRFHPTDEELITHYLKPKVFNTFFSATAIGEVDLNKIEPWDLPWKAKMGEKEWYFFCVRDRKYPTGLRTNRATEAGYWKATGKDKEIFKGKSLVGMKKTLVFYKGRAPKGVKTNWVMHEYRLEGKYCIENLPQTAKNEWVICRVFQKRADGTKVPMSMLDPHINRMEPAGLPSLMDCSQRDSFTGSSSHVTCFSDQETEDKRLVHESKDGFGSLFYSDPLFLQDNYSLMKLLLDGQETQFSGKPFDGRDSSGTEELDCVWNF
As to the kind of experiment: EMSA; LightShift Chemiluminescent EMSA kit binding buffer (composition, pH, temperature not given); 400 ng protein, 12.5 fmol 5'-biotin probe, 1 ug poly(dI-dC), 15 min. The conditions noted are these: protein: recombinant; tags: N-terminal MBP (pMAL-c5g); chain copies: 2; label: 5'-biotin; blunt.

The target of data set [5] is T1, MBP-N-EIN3. The data set is described as follows: competition; unlabeled 800-fold excess vs NYC1-EBS; LightShift Chemiluminescent EMSA kit binding buffer (composition, pH, temperature not given); 400 ng protein, 12.5 fmol 5'-biotin probe, 1 ug poly(dI-dC), 15 min. The conditions noted are these: protein: recombinant; tags: N-terminal MBP (pMAL-c5g); chain copies: 2; blunt.

These results are taken from paper PMC4517869, “EIN3 and ORE1 Accelerate Degreening during Ethylene-Mediated Leaf Senescence by Directly Activating Chlorophyll Catabolic Genes in Arabidopsis”.

B1: NYE1-EBS (dsDNA)
DNA 1: GTTTAGGTAAGCAATACGAACCTGGATAAACGAAATGC
DNA 2: GCATTTCGTTTATCCAGGTTCGTATTGCTTACCTAAAC
With B1, the binding result with MBP-N-EIN3 [1] is listed as “binds”.

B2: PAO-EBSm (dsDNA)
DNA 1: GCTTGAAATAAAAAAAAACAGAAGAGTA
DNA 2: TACTCTTCTGTTTTTTTTTATTTCAAGC
With B2, the binding result with MBP-N-EIN3 [2] is “no binding”.

B3: NYE1-EBSm (dsDNA)
DNA 1: GTTTAGGTAAGCAATTTTTTTTTGGATAAACGAAATGC
DNA 2: GCATTTCGTTTATCCAAAAAAAAATTGCTTACCTAAAC
Regarding B3, the binding result with MBP-N-EIN3 [3] was “no binding”.

B4: ORE1-EBSm (dsDNA)
DNA 1: ATACTTTACAAGGGTAATGCATGCATAC
DNA 2: GTATGCATGCATTACCCTTGTAAAGTAT
As for B4, the binding result in the data set with MBP-N-EIN3 [4] is “no binding”.

B5: ACS2-OBS (dsDNA)
DNA 1: GGAATTATGTGGAGGACGTACGTTTATACATGTGCAGACTACAAC
DNA 2: GTTGTAGTCTGCACATGTATAAACGTACGTCCTCCACATAATTCC
As for B5, in the data set with MBP-ORE1, the binding result is given as “binds”.

B6: NYE1-OBS (dsDNA)
DNA 1: GTGGTTTCAGTGTACGAACACGCAAGAACTC
DNA 2: GAGTTCTTGCGTGTTCGTACACTGAAACCAC
B6: in the data set with MBP-ORE1, the binding result is on record as “binds”.

B7: NYC1-EBSm (dsDNA)
DNA 1: TAATTTACTCAAAAAAAAAAGTAATGAC
DNA 2: GTCATTACTTTTTTTTTTGAGTAAATTA
Turning to B7, in the data set with MBP-N-EIN3 [5], the binding result is listed as “no binding”.

B8: PAO-OBS (dsDNA)
DNA 1: ATTGCATACTTGCACGCAATCTCTTCTTC
DNA 2: GAAGAAGAGATTGCGTGCAAGTATGCAAT
Take B8: the binding result with MBP-ORE1 was “binds”.

B9: NYC1-OBS (dsDNA)
DNA 1: GAGGTTGCTGTAACGTGTGGCCATCACAC
DNA 2: GTGTGATGGCCACACGTTACAGCAACCTC
B9: the binding result with MBP-ORE1 was “binds”.

B10: PAO-EBS (dsDNA)
DNA 1: GCTTGAAATAAGATTCATCAGAAGAGTA
DNA 2: TACTCTTCTGATGAATCTTATTTCAAGC
Turning to B10, the binding result with MBP-N-EIN3 [1] was “binds”.

B11: NOL-OBS (dsDNA)
DNA 1: AGCTTGCTCGCTTACGCAACTCTCTCTCT
DNA 2: AGAGAGAGAGTTGCGTAAGCGAGCAAGCT
As to B11, the binding result with MBP-ORE1 is listed as “binds”.

B12: NYC1-EBS (dsDNA)
DNA 1: TAATTTACTCAGGTACATAAGTAATGAC
DNA 2: GTCATTACTTATGTACCTGAGTAAATTA
Regarding B12, the binding result in the data set with MBP-N-EIN3 [1] is listed as “binds”.
